PMC13021935

Target: CENP-A nucleosomes reconstituted on an 18 x 601 DNA array (xlCENP-A-myc/H4 tetramer with H2A/H2B dimers) (X. laevis | not stated) (UniProt Q569M3)

centromere localisation (immunofluorescence, FLAG) on sperm nuclei in interphase egg extract immunodepleted of endogenous CENP-C and M18BP1, relative to WT FLAG-M18BP1-L (% of WT levels): 30
Substance: Xenopus laevis M18BP1-L S760D (xlM18BP1-L^S760D-3xFLAG) (natural protein)
